Results as given in the supplement of paper PMC10126150.
± gives the standard deviation of the averaged measurements.

System: ATP
Experiment: switch fluorescence ratio, 500 uM ATP over buffer (Cy3 cluster intensity, sum of 5 cycles each) (fold (ratio)); higher = stronger signal-on switching upon ATP binding; sequences stand for … in TCGTCGGCAGCGTCAGATGTGTATAAGAGACAGTTTTTTTTTTTTTTTTTTTTTTTTT…TC
Settings: aptamer strand: ATP DNA aptamer (quencher-CACCTGGGGGAGTATTGCGGAGGAAGG + anchor), 100 nM annealed; ATP concentration: 500 uM
Method in brief: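 Five buffer/ATP imaging cycles were run on Cy3-labelled switching-strand clusters on a modified Illumina MiSeq flow-cell, with NaOH stripping and re-annealing between cycles. In each cycle, clusters annealed to 100 nM quencher-labelled ATP aptamer were imaged in selection buffer, then after 15 min with 500 uM ATP at 22 °C. Per cluster, the fluorescence ratio is summed target-cycle over summed buffer-cycle Cy3 intensity, averaged per switch-domain sequence. Only clusters within 100-1000 RFU were kept.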
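Note: ATP exposure 15 min at 22 °C before imaging.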

GATTTTCAGA
switch fluorescence ratio: 0.998 ± 0.027

GATTTTCCTA
switch fluorescence ratio: 0.9608 ± 0.0014

GATTTTGGGT
switch fluorescence ratio: 1.02 ± 0.038

GATTTTGGTC
switch fluorescence ratio: 0.967 ± 0.054

GATTTTGTAG
switch fluorescence ratio: 1.01 ± 0.028

GATTTTGTCT
switch fluorescence ratio: 0.9923 ± 0.0099

GATTTTGTTT
switch fluorescence ratio: 0.996 ± 0.027

GATTTTTCAA
switch fluorescence ratio: 1 ± 0.021

GATTTTTGCC
switch fluorescence ratio: 1.01 ± 0.031

GATTTTTTAG
switch fluorescence ratio: 0.998 ± 0.018

GATTTTTTAT
switch fluorescence ratio: 0.999 ± 0.058

GCAAAAAGGA
switch fluorescence ratio: 1.6 ± 0.89

GCAAAAAGGT
switch fluorescence ratio: 0.996 ± 0.029

GCAAAAGAGA
switch fluorescence ratio: 0.994 ± 0.032

GCAAAAGGAA
switch fluorescence ratio: 0.975 ± 0.022

GCAAAAGGGC
switch fluorescence ratio: 1.02 ± 0.014

GCAAATGATG
switch fluorescence ratio: 1.01 ± 0.012

GCAACCGAGG
switch fluorescence ratio: 1.04 ± 0.064

GCAAGAAAAA
switch fluorescence ratio: 1.023 ± 0.0056

GCAAGACATT
switch fluorescence ratio: 1.12 ± 0.019

GCAAGAGGGT
switch fluorescence ratio: 1 ± 0.028

GCAAGCTGGG
switch fluorescence ratio: 1.01 ± 0.014

GCAATCATTC
switch fluorescence ratio: 1.18 ± 0.087

GCAATTGATG
switch fluorescence ratio: 1.04 ± 0.017

GCAATTGGGT
switch fluorescence ratio: 1.08 ± 0.012

GCAATTGTCG
switch fluorescence ratio: 1.02 ± 0.046

GCACATAGCT
switch fluorescence ratio: 1.01 ± 0.025

GCACATCTGT
switch fluorescence ratio: 0.99 ± 0.056

GCACATGGCC
switch fluorescence ratio: 1.03 ± 0.02

GCACCCGTAC
switch fluorescence ratio: 1.52 ± 0.037

GCACCTATGG
switch fluorescence ratio: 0.979 ± 0.025

GCACGCAGGA
switch fluorescence ratio: 1.054 ± 0.006

GCACGGATGT
switch fluorescence ratio: 1.029 ± 0.0097

GCACGGGGAA
switch fluorescence ratio: 1.02 ± 0.028

GCACTAAACT
switch fluorescence ratio: 1.05 ± 0.057

GCACTCGGCT
switch fluorescence ratio: 0.991 ± 0.0047

GCACTTGGGG
switch fluorescence ratio: 0.998 ± 0.057

GCACTTGGTC
switch fluorescence ratio: 0.989 ± 0.011

GCAGAAAAAA
switch fluorescence ratio: 0.988 ± 0.028

GCAGAATGCA
switch fluorescence ratio: 0.9861 ± 0.0024

GCAGACAGCT
switch fluorescence ratio: 1.037 ± 0.0085

GCAGACATAG
switch fluorescence ratio: 0.983 ± 0.025

GCAGACCATT
switch fluorescence ratio: 1.049 ± 0.0067

GCAGCAGATG
switch fluorescence ratio: 1.077 ± 0.0072

GCAGCATCGG
switch fluorescence ratio: 1.12 ± 0.021

GCAGCATCTG
switch fluorescence ratio: 1.01 ± 0.024

GCAGCATGC
switch fluorescence ratio: 1.1 ± 0.17

GCAGCCTGCT
switch fluorescence ratio: 0.985 ± 0.032

GCAGCCTGTT
switch fluorescence ratio: 0.994 ± 0.011

GCAGCTGGCT
switch fluorescence ratio: 1.02 ± 0.11

GCAGGAAGGG
switch fluorescence ratio: 0.977 ± 0.019

GCAGGAATTT
switch fluorescence ratio: 1 ± 0.038

GCAGGAGGGA
switch fluorescence ratio: 1.01 ± 0.039

GCAGGCAACT
switch fluorescence ratio: 0.995 ± 0.018

GCAGGCCACA
switch fluorescence ratio: 1.11 ± 0.065

GCAGGCGGGG
switch fluorescence ratio: 1.02 ± 0.034

GCAGGGACAA
switch fluorescence ratio: 1.01 ± 0.018

GCAGGGACCC
switch fluorescence ratio: 1.12 ± 0.12

GCAGGGAGGG
switch fluorescence ratio: 1 ± 0.041

GCAGGGGAGT
switch fluorescence ratio: 1.17 ± 0.29

GCAGGGTGTC
switch fluorescence ratio: 1.08 ± 0.048

GCAGGTATCA
switch fluorescence ratio: 1.018 ± 0.007

GCAGGTGGGG
switch fluorescence ratio: 1.1 ± 0.022

GCAGTAAAGC
switch fluorescence ratio: 1.03 ± 0.032

GCAGTAAGTT
switch fluorescence ratio: 0.978 ± 0.061

GCAGTAGTTA
switch fluorescence ratio: 1.03 ± 0.013

GCAGTCATTA
switch fluorescence ratio: 1.037 ± 0.0019

GCAGTGCCTA
switch fluorescence ratio: 0.993 ± 0.044

GCAGTGGTAC
switch fluorescence ratio: 2.41 ± 0.086

GCAGTTGGGT
switch fluorescence ratio: 0.986 ± 0.028

GCATAGAAAA
switch fluorescence ratio: 0.982 ± 0.015

GCATAGCCTG
switch fluorescence ratio: 0.98 ± 0.034

GCATAGTCTG
switch fluorescence ratio: 1.038 ± 0.0042

GCATAGTGGT
switch fluorescence ratio: 1.008 ± 0.01

GCATATCGGG
switch fluorescence ratio: 1.02 ± 0.017

GCATATTTTT
switch fluorescence ratio: 1.026 ± 0.0032

GCATCAAAGG
switch fluorescence ratio: 0.995 ± 0.013

GCATCCGGCG
switch fluorescence ratio: 1.04 ± 0.081

GCATCGGGCC
switch fluorescence ratio: 0.981 ± 0.026

GCATCTTCAC
switch fluorescence ratio: 1.0378 ± 0.00044

GCATCTTGGG
switch fluorescence ratio: 1 ± 0.029

GCATGACTGT
switch fluorescence ratio: 1.01 ± 0.024

GCATGATGGA
switch fluorescence ratio: 0.975 ± 0.022

GCATGCGGCT
switch fluorescence ratio: 1.03 ± 0.1

GCATGGAGTA
switch fluorescence ratio: 1.02 ± 0.029

GCATGGCGGC
switch fluorescence ratio: 1.01 ± 0.019

GCATGGGGGG
switch fluorescence ratio: 1.02 ± 0.042

GCATGTAGAT
switch fluorescence ratio: 0.998 ± 0.047

GCATGTGTTC
switch fluorescence ratio: 0.995 ± 0.038

GCATTAGTAT
switch fluorescence ratio: 0.935 ± 0.044

GCATTCCGTT
switch fluorescence ratio: 1.02 ± 0.011

GCATTGGGGC
switch fluorescence ratio: 0.9893 ± 0.0098

GCATTGGGTG
switch fluorescence ratio: 1.11 ± 0.054

GCATTGGTAC
switch fluorescence ratio: 1.17 ± 0.071

GCATTGGTGG
switch fluorescence ratio: 1.03 ± 0.019

GCATTGTGTG
switch fluorescence ratio: 0.991 ± 0.037

GCATTGTTTG
switch fluorescence ratio: 0.995 ± 0.034

GCATTTATGG
switch fluorescence ratio: 0.949 ± 0.022

GCATTTCATG
switch fluorescence ratio: 0.987 ± 0.021

GCATTTGCTT
switch fluorescence ratio: 1.01 ± 0.019

GCATTTTTCT
switch fluorescence ratio: 0.982 ± 0.031

GCATTTTTTC
switch fluorescence ratio: 1.03 ± 0.019

GCCAATTACG
switch fluorescence ratio: 1.11 ± 0.03

GCCAATTATT
switch fluorescence ratio: 0.991 ± 0.031

GCCACACTAG
switch fluorescence ratio: 1.06 ± 0.032

GCCACGGGGA
switch fluorescence ratio: 1.0073 ± 0.00078

GCCAGAGGGG
switch fluorescence ratio: 1.19 ± 0.34

GCCAGCAAGC
switch fluorescence ratio: 2.25 ± 0.34

GCCAGCATGG
switch fluorescence ratio: 1.003 ± 0.0046

GCCAGCGATC
switch fluorescence ratio: 2.23 ± 0.81

GCCAGGGATT
switch fluorescence ratio: 1.01 ± 0.029

GCCAGGGGGT
switch fluorescence ratio: 1.08 ± 0.12

GCCAGGGTCA
switch fluorescence ratio: 1.025 ± 0.0066

GCCATACGCG
switch fluorescence ratio: 1.03 ± 0.016

GCCATGACGG
switch fluorescence ratio: 0.988 ± 0.027

GCCCAAGGGG
switch fluorescence ratio: 1.05 ± 0.091

GCCCATAGAC
switch fluorescence ratio: 1.12 ± 0.041

GCCCATAGGA
switch fluorescence ratio: 0.978 ± 0.094

GCCCCGGCTG
switch fluorescence ratio: 1.03 ± 0.045

GCCCCGGGTT
switch fluorescence ratio: 1.36 ± 0.37

GCCCGGCCAG
switch fluorescence ratio: 0.9693 ± 0.0062

GCCCGGGCAT
switch fluorescence ratio: 0.986 ± 0.013

GCCCGGGGGA
switch fluorescence ratio: 1.94 ± 1.3

GCCCGTATGG
switch fluorescence ratio: 1 ± 0.019

GCCCGTTCGG
switch fluorescence ratio: 1.01 ± 0.028

GCCCTAGTGT
switch fluorescence ratio: 1.13 ± 0.024

GCCCTGAGCG
switch fluorescence ratio: 1.011 ± 0.0066

GCCCTTAGCA
switch fluorescence ratio: 1.018 ± 0.0013

GCCGAAGGGG
switch fluorescence ratio: 1.004 ± 0.0035

GCCGAATATG
switch fluorescence ratio: 1.01 ± 0.015

GCCGACAAGC
switch fluorescence ratio: 1.05 ± 0.083

GCCGCCAGGG
switch fluorescence ratio: 1.26 ± 0.068

GCCGCGGGGA
switch fluorescence ratio: 1.04 ± 0.024

GCCGGATTGG
switch fluorescence ratio: 0.956 ± 0.021

GCCGGCTGTG
switch fluorescence ratio: 0.9902 ± 0.0018

GCCGGCTTTC
switch fluorescence ratio: 1.01 ± 0.048

GCCGGGACGC
switch fluorescence ratio: 1.05 ± 0.049

GCCGGGGCGC
switch fluorescence ratio: 1 ± 0.012

GCCGGTAGGG
switch fluorescence ratio: 0.98 ± 0.031

GCCGGTTCTG
switch fluorescence ratio: 1.06 ± 0.022

GCCGTCAGTT
switch fluorescence ratio: 0.9899 ± 0.0048

GCCGTGCGGG
switch fluorescence ratio: 0.978 ± 0.03

GCCGTTTTGG
switch fluorescence ratio: 1 ± 0.034

GCCTAAGTTT
switch fluorescence ratio: 0.986 ± 0.024

GCCTATGCAA
switch fluorescence ratio: 1.48 ± 0.021

GCCTATTTGG
switch fluorescence ratio: 0.998 ± 0.023

GCCTCAGACA
switch fluorescence ratio: 1.047 ± 0.0092

GCCTCAGGAT
switch fluorescence ratio: 0.996 ± 0.068

GCCTGAAAGC
switch fluorescence ratio: 0.9912 ± 0.0054

GCCTGAGATG
switch fluorescence ratio: 1.03 ± 0.017

GCCTGCTAGC
switch fluorescence ratio: 1.008 ± 0.007

GCCTGCTTGC
switch fluorescence ratio: 1.03 ± 0.053

GCCTGGTTTT
switch fluorescence ratio: 0.979 ± 0.024
